Three molecules from paper PMC1483224 can be followed below.

Sequences and labels used below:
T1: MutS (Escherichia coli, UniProt P23909 1-853)
T1 sequence: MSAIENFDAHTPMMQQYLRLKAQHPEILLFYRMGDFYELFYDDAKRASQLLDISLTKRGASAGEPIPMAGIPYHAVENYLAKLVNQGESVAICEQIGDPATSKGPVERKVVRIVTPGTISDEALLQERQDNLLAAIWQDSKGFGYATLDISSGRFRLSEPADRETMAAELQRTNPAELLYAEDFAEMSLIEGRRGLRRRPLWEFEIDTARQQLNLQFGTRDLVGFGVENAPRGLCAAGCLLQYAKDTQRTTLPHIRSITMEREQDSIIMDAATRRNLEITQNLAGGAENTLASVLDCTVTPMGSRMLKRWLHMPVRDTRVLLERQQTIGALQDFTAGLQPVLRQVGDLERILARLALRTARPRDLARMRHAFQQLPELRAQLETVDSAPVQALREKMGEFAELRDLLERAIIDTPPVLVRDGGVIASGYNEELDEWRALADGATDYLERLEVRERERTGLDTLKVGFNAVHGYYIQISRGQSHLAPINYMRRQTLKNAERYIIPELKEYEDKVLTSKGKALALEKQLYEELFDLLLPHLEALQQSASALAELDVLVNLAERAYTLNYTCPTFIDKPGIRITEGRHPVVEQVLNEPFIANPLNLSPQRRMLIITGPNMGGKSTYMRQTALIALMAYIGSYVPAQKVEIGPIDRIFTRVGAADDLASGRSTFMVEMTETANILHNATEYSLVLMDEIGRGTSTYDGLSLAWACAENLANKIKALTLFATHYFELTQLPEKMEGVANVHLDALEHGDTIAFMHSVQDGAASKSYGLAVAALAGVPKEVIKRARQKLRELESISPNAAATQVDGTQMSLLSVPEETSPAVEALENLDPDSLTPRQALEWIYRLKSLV

B1: CT heteroduplex (dsDNA)
DNA 1: GACGAGCCGCCCGCTAGCGTCG
DNA 2: CGACGCTAGCGTGCGGCTCGTC
B2: CC heteroduplex (dsDNA)
DNA 1: GACGAGCCGCCCGCTAGCGTCG
DNA 2: CGACGCTAGCGCGCGGCTCGTC
B3: GT heteroduplex (dsDNA)
DNA 1: GACGAGCCGCGCGCTAGCGTCG
DNA 2: CGACGCTAGCGTGCGGCTCGTC

The series has as its target T1, MutS. The series can be described thus: impedance spectroscopy, CV.
Turning to B1, the binding signal is 1680 Ohm/cm (Rct calibration slope as printed).
For B2 the value was 1050 Ohm/cm (Rct calibration slope as printed); for B3, 3380 Ohm/cm (Rct calibration slope as printed).
